The values that follow are results of earlier work, collected in patent publication US20060289354A1, “Method and composition to control the growth of microorganisms in aqueous systems and on substrates” (Buckman Laboratories International, Inc., priority 2005, published 2006).

For the data set the following is noted: for shelf life: original sealed package.

Read-outs that look alike come from different tables or passages of the source.

In the case of lactoperoxidase [LP], the “effect of exposure to elevated temperature” value (>65° C. for short time (10 minutes)) is “denaturation of the protein and loss of the activity”. Moreover, the shelf life by setting is: (8° C.) at least 2 years; (20° C.) “at least 1 year”. Moreover, the “optimal pH” value (typical commercial form) is 5.0-6.5.
